According to paper PMC9536601, “Binding of adenovirus species C hexon to prothrombin and the influence of hexon on vector properties in vitro and in vivo” (PLoS Pathogens, 2022):
Positions count from the first letter of the chain named.

B1: bovine coagulation factor X (natural protein, UniProt P00743 41-492, looked up)
chain: ANSFLEEVKQGNLERECLEEACSLEEAREVFEDAEQTDEFWSKYKDGDQCEGHPCLNQGHCKDGIGDYTCTCAEGFEGKNCEFSTREICSLDNGGCDQFCREERSEVRCSCAHGYVLGDDSKSCVSTERFPCGKFTQGRSRRWAIHTSEDALDASELEHYDPADLSPTESSLDLLGLNRTEPSAGEDGSQVVRIVGGRDCAEGECPWQALLVNEENEGFCGGTILNEFYVLTAAHCLHQAKRFTVRVGDRNTEQEEGNEMAHEVEMTVKHSRFVKETYDFDIAVLRLKTPIRFRRNVAPACLPEKDWAEATLMTQKTGIVSGFGRTHEKGRLSSTLKMLEVPYVDRSTCKLSSSFTITPNMFCAGYDTQPEDACQGDSGGPHVTRFKDTYFVTGIVSWGEGCARKGKFGVYTKVSNFLKWIDKIMKARAGAAGSRGHSEAPATWTVPPPLPL
modifications: γ-carboxylated glutamate residues in the Gla domain (positions not given)
notes: coagulation factor X, bovine, plasma-derived; also called Bovine FX; source: bought: Haematologic Technologies, Inc. (BCX-1050), plasma-derived; pretreated with GGACK, dialyzed
B2: mouse prothrombin (coagulation factor II) (natural protein)
chain: not shown
modifications: γ-carboxylated glutamate residues in the Gla domain (positions not given)
notes: prothrombin (FII), mouse, plasma-derived; also called Mouse FII; source: dialyzed
B3: mouse coagulation factor X (natural protein, UniProt O88947 41-481, looked up)
chain: ANSFFEEFKKGNLERECMEEICSYEEVREIFEDDEKTKEYWTKYKDGDQCESSPCQNQGACRDGIGGYTCTCSEGFEGKNCELFVRKLCRLDNGDCDQFCREEQNSVVCSCASGYFLGNDGKSCISTAPFPCGKITTGRRKRSVALNTSDSELDLEDALLDEDFLSPTENPIELLNLNETQPERSSDDLVRIVGGRECKDGECPWQALLINEDNEGFCGGTILNEFYILTAAHCLHQARRFKVRVGDRNTEKEEGNEMVHEVDVVIKHNKFQRDTYDYDIAVLRLKTPITFRMNVAPACLPQKDWAESTLMTQKTGIVSGFGRTHEKGRQSNILKMLEVPYVDRNTCKLSTSFSITQNMFCAGYEAKLEDACQGDSGGPHVTRFKNTYYVTGIVSWGEGCARKGKYGIYTKVTTFLKWIDRSMKARVGPTAETPRTAGPPN
modifications: γ-carboxylated glutamate residues in the Gla domain (positions not given)
notes: coagulation factor X, mouse, plasma-derived; also called Mouse FX; source: bought: Haematologic Technologies, Inc. (MCX-5050), plasma-derived; pretreated with GGACK, dialyzed
B4: hexon of Ad5.5 (Ad5 vector, hexon HVR7 VINTDTL), on the virion (natural protein, human adenovirus type 5)
chain: ATPSMMPQWSYMHISGQDASEYLSPGLVQFARATETYFSLNNKFRNPTVAPTHDVTTDRSQRLTLRFIPVDREDTAYSYKARFTLAVGDNRVLDMASTYFDIRGVLDRGPTFKPYSGTAYNALAPKGAPNPCEWDEAATALEINLEEEDDDNEDEVDEQAEQQKTHVFGQAPYSGINITKEGIQIGVEGQTPKYADKTFQPEPQIGESQWYETEINHAAGRVLKKTTPMKPCYGSYAKPTNENGGQGILVKQQNGKLESQVEMQFFSTTEATAGNGDNLTPKVVLYSEDVDIETPDTHISYMPTIKEGNSRELMGQQSMPNRPNYIAFRDNFIGLMYYNSTGNMGVLAGQASQLNAVVDLQDRNTELSYQLLLDSIGDRTRYFSMWNQAVDSYDPDVRIIENHGTEDELPNYCFPLGGVINTDTLTKVKPKTGQENGWEKDATEFSDKNEIRVGNNFAMEINLNANLWRNFLYSNIALYLPDKLKYSPSNVKISDNPNTYDYMNKRVVAPGLVDCYINLGARWSLDYMDNVNPFNHHRNAGLRYRSMLLGNGRYVPFHIQVPQKFFAIKNLLLLPGSYTYEWNFRKDVNMVLQSSLGNDLRVDGASIKFDSICLYATFFPMAHNTASTLEAMLRNDTNDQSFNDYLSAANMLYPIPANATNVPISIPSRNWAAFRGWAFTRLKTKETPSLGSGYDPYYTYSGSIPYLDGTFYLNHTFKKVAITFDSSVSWPGNDRLLTPNEFEIKRSVDGEGYNVAQCNMTKDWFLVQMLANYNIGYQGFYIPESYKDRMYSFFRNFQPMSRQVVDDTKYKDYQQVGILHQHNNSGFVGYLAPTMREGQAYPANFPYPLIGKTAVDSITQKKFLCDRTLWRIPFSSNFMSMGALTDLGQNLLYANSAHALDMTFEVDPMDEPTLLYVLFEVFDVVRVHRPHRGVIETVYLRTPFSAGNATT
notes: hexon of human adenovirus type 5, whole as in the capsid of the virion; HVR7 segment changed; The whole virion was immobilised; source: 293 cells, virions purified by CsCl ultracentrifugation
B5: hexon of Ad5.0 (E1/E3-deleted Ad5 vector with wild-type Ad5 capsid), on the virion (natural protein, human adenovirus type 5)
chain: B4 chain with D423E
notes: hexon of human adenovirus type 5, whole as in the capsid of the virion; HVR7 segment VINTETL; The whole virion was immobilised; The other capsid proteins are not written; also called VINTETL; source: 293 cells, virions purified by CsCl ultracentrifugation
B6: hexon of Ad5.4 (Ad5 vector, hexon HVR7 VINTATL), on the virion (natural protein, human adenovirus type 5)
chain: B4 chain with D423A
notes: as for B4
B7: hexon of Ad5.6 (Ad5 vector, hexon HVR7 VIRTDTL), on the virion (natural protein, human adenovirus type 5)
chain: B4 chain with N421R
notes: as for B4

Target: B4
Assay: SPR; Biacore T200; about 300 to 5,000 RU of Ad virions immobilised on a CM5 chip, coagulation factors flowed over at four concentrations, 50 uL/min; 10 mM HEPES, 150 mM NaCl, 1 mM CaCl2, 0.5 mM MgCl2, 0.1% BSA, 0.05% polysorbate 20, pH 7.4; global fit to a 1:1 kinetic interaction model, double referencing
Conditions: both partners purified

| Binder | Kd |
| --- | --- |
| B1 | 438 nM |
| B2 | 216 nM |
| B3 | 2.5 nM |

Target: B7
Assay: as above
Conditions: both partners purified

| Binder | Kd |
| --- | --- |
| B1 | 1620 nM |
| B2 | 420 nM |
| B3 | 0.37 nM |

Target: T1, human prothrombin (coagulation factor II) (human, UniProt P00734 44-622, γ-carboxylated glutamate residues in the Gla domain (positions not given))
T1 construct: prothrombin (FII), human, plasma-derived; also called Human FII; FII; source: bought: Haematologic Technologies, Inc. (HCP-0010), plasma-derived; dialyzed
Assay: as above
Conditions: both partners purified

| Binder | Kd |
| --- | --- |
| B4 | 233 nM |
| B5 | 35 nM |
| B6 | 266 nM |
| B7 | 130 nM |

Target: B5
Assay: as above
Conditions: both partners purified

| Binder | Kd |
| --- | --- |
| B1 | 270 nM |
| B2 | 2000 nM |
| B3 | 0.32 nM |

Target: B6
Assay: as above
Conditions: both partners purified

| Binder | Kd |
| --- | --- |
| B1 | 540 nM |
| B2 | 36000 nM |
| B3 | 1.9 nM |
